Experimental findings from patent US20200087373A1 (UNIVERSITY OF COPENHAGEN, published 2020) are described below.

Ends that are not written are not given here. * marks the point of attachment. C16 diacid = O=C(O)CCCCCCCCCCCCCCC(=O)*

For assay [1], the target named is T1, human GIP receptor (human, UniProt P48546 22-466).
T1 sequence (looked up): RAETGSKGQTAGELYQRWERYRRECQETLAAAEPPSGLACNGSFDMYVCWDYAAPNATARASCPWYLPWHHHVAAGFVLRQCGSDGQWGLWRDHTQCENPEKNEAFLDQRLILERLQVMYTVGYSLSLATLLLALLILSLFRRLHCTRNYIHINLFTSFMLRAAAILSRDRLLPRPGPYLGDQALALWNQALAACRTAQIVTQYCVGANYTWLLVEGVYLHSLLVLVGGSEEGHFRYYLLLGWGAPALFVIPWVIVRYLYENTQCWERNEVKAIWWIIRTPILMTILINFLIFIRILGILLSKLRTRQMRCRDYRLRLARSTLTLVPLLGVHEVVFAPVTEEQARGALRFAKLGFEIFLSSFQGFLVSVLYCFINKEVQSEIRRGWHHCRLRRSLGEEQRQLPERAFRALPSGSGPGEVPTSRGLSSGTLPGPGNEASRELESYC
Kind of assay: cell-based or functional assay.

Assay [2] has as its target T1, human GIP receptor. The assay can be described thus: 125I-hGIP(1-42) competition binding, COS-7 cells expressing human GIPR, with 2% HSA.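 Note: nonspecific signal taken as radioligand bound to untransfected cells.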
Experimental: (§1) After incubation, the cells were washed twice in ice-cold binding buffer (+/−2% HSA) and lysed using 200 mM NaOH with 1% SDS for 30 min. Nonspecific binding was determined as the binding of radioactive ligand to untransfected cells.
Assay [3] concerns the target T1, human GIP receptor. The assay can be described thus: 125I-hGIP(1-42) competition binding, COS-7 cells expressing human GIPR, without HSA.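 Note: nonspecific binding defined as radioligand bound to cells lacking the transfected receptor.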
Experimental: as §1
Assay [4] has as its target T1, human GIP receptor. The assay can be described thus: ratio of Ki with 2% HSA to Ki without HSA, 125I-hGIP competition binding on hGIPR COS-7 cells.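 Note: nonspecific binding was defined as radioligand signal on cells lacking the receptor transfection, with cell lysates measured after washes.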
Experimental: as §1

The term Ki denotes a measure of affinity in units of concentration, obtained from inhibition or displacement. Read a low Ki as higher affinity.

B1: AT184 [hGIP(5-30)NH2[N24K]-C16diacid/24] (peptide)
peptide: TFISDYSIAMDKIHQQDFVK(C16 diacid)WLLAQK-NH2
modifications: N-terminus assumed
SMILES: CC[C@H](C)[C@H](NC(=O)[C@H](CO)NC(=O)[C@H](Cc1ccc(O)cc1)NC(=O)[C@H](CC(=O)O)NC(=O)[C@H](CO)NC(=O)[C@@H](NC(=O)[C@H](Cc1ccccc1)NC(=O)[C@@H](N)[C@@H](C)O)[C@@H](C)CC)C(=O)N[C@@H](C)C(=O)N[C@@H](CCSC)C(=O)N[C@@H](CC(=O)O)C(=O)N[C@@H](CCCCN)C(=O)N[C@H](C(=O)N[C@@H](Cc1c[nH]cn1)C(=O)N[C@@H](CCC(N)=O)C(=O)N[C@@H](CCC(N)=O)C(=O)N[C@@H](CC(=O)O)C(=O)N[C@@H](Cc1ccccc1)C(=O)N[C@H](C(=O)N[C@@H](CCCCNC(=O)CCCCCCCCCCCCCCC(=O)O)C(=O)N[C@@H](Cc1c[nH]c2ccccc12)C(=O)N[C@@H](CC(C)C)C(=O)N[C@@H](CC(C)C)C(=O)N[C@@H](C)C(=O)N[C@@H](CCC(N)=O)C(=O)N[C@@H](CCCCN)C(N)=O)C(C)C)[C@@H](C)CC
With B1, in assay [1], the “cAMP accumulation Fold (fold change from GIP(5-30)NH2)” value was 3.9 fold, the “cAMP accumulation IC50” value was determined as 0.107 µM and the “cAMP accumulation logIC50” value is -6.97 log(M). Affinity in assay [2] was put at a Ki of 0.871 µM. Affinity in assay [3] was put at a Ki of 0.224 µM. For the same molecule, in assay [4], the “Fold (Ki + HSA / Ki - HSA)” value was 3.9 fold.

B2: AT188 [hGIP(5-30)NH2[A28K]-C16diacid/28] (peptide)
peptide: TFISDYSIAMDKIHQQDFVNWLLK(C16 diacid)QK-NH2
modifications: N-terminus assumed
SMILES: CC[C@H](C)[C@H](NC(=O)[C@H](CO)NC(=O)[C@H](Cc1ccc(O)cc1)NC(=O)[C@H](CC(=O)O)NC(=O)[C@H](CO)NC(=O)[C@@H](NC(=O)[C@H](Cc1ccccc1)NC(=O)[C@@H](N)[C@@H](C)O)[C@@H](C)CC)C(=O)N[C@@H](C)C(=O)N[C@@H](CCSC)C(=O)N[C@@H](CC(=O)O)C(=O)N[C@@H](CCCCN)C(=O)N[C@H](C(=O)N[C@@H](Cc1c[nH]cn1)C(=O)N[C@@H](CCC(N)=O)C(=O)N[C@@H](CCC(N)=O)C(=O)N[C@@H](CC(=O)O)C(=O)N[C@@H](Cc1ccccc1)C(=O)N[C@H](C(=O)N[C@@H](CC(N)=O)C(=O)N[C@@H](Cc1c[nH]c2ccccc12)C(=O)N[C@@H](CC(C)C)C(=O)N[C@@H](CC(C)C)C(=O)N[C@@H](CCCCNC(=O)CCCCCCCCCCCCCCC(=O)O)C(=O)N[C@@H](CCC(N)=O)C(=O)N[C@@H](CCCCN)C(N)=O)C(C)C)[C@@H](C)CC
With B2, in assay [1], the “cAMP accumulation Fold (fold change from GIP(5-30)NH2)” value stood at 6.8 fold, the “cAMP accumulation IC50” value stood at 0.186 µM and the “cAMP accumulation logIC50” value is -6.73 log(M). In assay [2], this molecule gave a Ki of 0.462 µM. Moreover, in assay [3], affinity was put at a Ki of 0.144 µM. In assay [4], the “Fold (Ki + HSA / Ki - HSA)” value was found to be 3.2 fold.

B3: AT186 [hGIP(5-30)NH2[L26K]-C16diacid/26] (peptide)
peptide: TFISDYSIAMDKIHQQDFVNWK(C16 diacid)LAQK-NH2
modifications: N-terminus assumed
SMILES: CC[C@H](C)[C@H](NC(=O)[C@H](CO)NC(=O)[C@H](Cc1ccc(O)cc1)NC(=O)[C@H](CC(=O)O)NC(=O)[C@H](CO)NC(=O)[C@@H](NC(=O)[C@H](Cc1ccccc1)NC(=O)[C@@H](N)[C@@H](C)O)[C@@H](C)CC)C(=O)N[C@@H](C)C(=O)N[C@@H](CCSC)C(=O)N[C@@H](CC(=O)O)C(=O)N[C@@H](CCCCN)C(=O)N[C@H](C(=O)N[C@@H](Cc1c[nH]cn1)C(=O)N[C@@H](CCC(N)=O)C(=O)N[C@@H](CCC(N)=O)C(=O)N[C@@H](CC(=O)O)C(=O)N[C@@H](Cc1ccccc1)C(=O)N[C@H](C(=O)N[C@@H](CC(N)=O)C(=O)N[C@@H](Cc1c[nH]c2ccccc12)C(=O)N[C@@H](CCCCNC(=O)CCCCCCCCCCCCCCC(=O)O)C(=O)N[C@@H](CC(C)C)C(=O)N[C@@H](C)C(=O)N[C@@H](CCC(N)=O)C(=O)N[C@@H](CCCCN)C(N)=O)C(C)C)[C@@H](C)CC
B3: in assay [1], the “cAMP accumulation Fold (fold change from GIP(5-30)NH2)” value amounted to 2.6 fold, the “cAMP accumulation IC50” value is 0.0708 µM and the “cAMP accumulation logIC50” value was -7.15 log(M). In addition, in assay [2], the Ki came out at 0.83 µM. This molecule came in with a Ki in assay [3] of 0.105 µM. Besides, the “Fold (Ki + HSA / Ki - HSA)” value in assay [4] came to 7.9 fold.

B4: AT185 [hGIP(5-30)NH2[W25K]-C16diacid/25] (peptide)
peptide: TFISDYSIAMDKIHQQDFVNK(C16 diacid)LLAQK-NH2
modifications: N-terminus assumed
SMILES: CC[C@H](C)[C@H](NC(=O)[C@H](CO)NC(=O)[C@H](Cc1ccc(O)cc1)NC(=O)[C@H](CC(=O)O)NC(=O)[C@H](CO)NC(=O)[C@@H](NC(=O)[C@H](Cc1ccccc1)NC(=O)[C@@H](N)[C@@H](C)O)[C@@H](C)CC)C(=O)N[C@@H](C)C(=O)N[C@@H](CCSC)C(=O)N[C@@H](CC(=O)O)C(=O)N[C@@H](CCCCN)C(=O)N[C@H](C(=O)N[C@@H](Cc1c[nH]cn1)C(=O)N[C@@H](CCC(N)=O)C(=O)N[C@@H](CCC(N)=O)C(=O)N[C@@H](CC(=O)O)C(=O)N[C@@H](Cc1ccccc1)C(=O)N[C@H](C(=O)N[C@@H](CC(N)=O)C(=O)N[C@@H](CCCCNC(=O)CCCCCCCCCCCCCCC(=O)O)C(=O)N[C@@H](CC(C)C)C(=O)N[C@@H](CC(C)C)C(=O)N[C@@H](C)C(=O)N[C@@H](CCC(N)=O)C(=O)N[C@@H](CCCCN)C(N)=O)C(C)C)[C@@H](C)CC
As for B4, in assay [1], the “cAMP accumulation Fold (fold change from GIP(5-30)NH2)” value came to 2.4 fold, the “cAMP accumulation IC50” value amounted to 0.0661 µM and the “cAMP accumulation logIC50” value is -7.18 log(M). This molecule also came in with a Ki in assay [2] of 0.337 µM. For the same molecule, the Ki in assay [3] was determined as 0.0671 µM. Besides, the “Fold (Ki + HSA / Ki - HSA)” value in assay [4] was 5 fold.

B5: AT189 [hGIP(5-30)NH2[Q29K]-C16diacid/29] (peptide)
peptide: TFISDYSIAMDKIHQQDFVNWLLAK(C16 diacid)K-NH2
modifications: N-terminus assumed
SMILES: CC[C@H](C)[C@H](NC(=O)[C@H](CO)NC(=O)[C@H](Cc1ccc(O)cc1)NC(=O)[C@H](CC(=O)O)NC(=O)[C@H](CO)NC(=O)[C@@H](NC(=O)[C@H](Cc1ccccc1)NC(=O)[C@@H](N)[C@@H](C)O)[C@@H](C)CC)C(=O)N[C@@H](C)C(=O)N[C@@H](CCSC)C(=O)N[C@@H](CC(=O)O)C(=O)N[C@@H](CCCCN)C(=O)N[C@H](C(=O)N[C@@H](Cc1c[nH]cn1)C(=O)N[C@@H](CCC(N)=O)C(=O)N[C@@H](CCC(N)=O)C(=O)N[C@@H](CC(=O)O)C(=O)N[C@@H](Cc1ccccc1)C(=O)N[C@H](C(=O)N[C@@H](CC(N)=O)C(=O)N[C@@H](Cc1c[nH]c2ccccc12)C(=O)N[C@@H](CC(C)C)C(=O)N[C@@H](CC(C)C)C(=O)N[C@@H](C)C(=O)N[C@@H](CCCCNC(=O)CCCCCCCCCCCCCCC(=O)O)C(=O)N[C@@H](CCCCN)C(N)=O)C(C)C)[C@@H](C)CC
B5: in assay [1], the “cAMP accumulation Fold (fold change from GIP(5-30)NH2)” value turned out to be 3 fold, the “cAMP accumulation IC50” value was determined as 0.0832 µM and the “cAMP accumulation logIC50” value is -7.08 log(M). Moreover, in assay [2], the Ki is 0.276 µM. The molecule further showed a Ki in assay [3] of 0.0855 µM. Also, the “Fold (Ki + HSA / Ki - HSA)” value in assay [4] came to 3.2 fold.

B6: AT187 [hGIP(5-30)NH2[L27K]-C16diacid/27] (peptide)
peptide: TFISDYSIAMDKIHQQDFVNWLK(C16 diacid)AQK-NH2
modifications: N-terminus assumed
SMILES: CC[C@H](C)[C@H](NC(=O)[C@H](CO)NC(=O)[C@H](Cc1ccc(O)cc1)NC(=O)[C@H](CC(=O)O)NC(=O)[C@H](CO)NC(=O)[C@@H](NC(=O)[C@H](Cc1ccccc1)NC(=O)[C@@H](N)[C@@H](C)O)[C@@H](C)CC)C(=O)N[C@@H](C)C(=O)N[C@@H](CCSC)C(=O)N[C@@H](CC(=O)O)C(=O)N[C@@H](CCCCN)C(=O)N[C@H](C(=O)N[C@@H](Cc1c[nH]cn1)C(=O)N[C@@H](CCC(N)=O)C(=O)N[C@@H](CCC(N)=O)C(=O)N[C@@H](CC(=O)O)C(=O)N[C@@H](Cc1ccccc1)C(=O)N[C@H](C(=O)N[C@@H](CC(N)=O)C(=O)N[C@@H](Cc1c[nH]c2ccccc12)C(=O)N[C@@H](CC(C)C)C(=O)N[C@@H](CCCCNC(=O)CCCCCCCCCCCCCCC(=O)O)C(=O)N[C@@H](C)C(=O)N[C@@H](CCC(N)=O)C(=O)N[C@@H](CCCCN)C(N)=O)C(C)C)[C@@H](C)CC
Take B6: in assay [1], the “cAMP accumulation Fold (fold change from GIP(5-30)NH2)” value stood at 67.6 fold, the “cAMP accumulation IC50” value stood at 1.86 µM and the “cAMP accumulation logIC50” value is -5.73 log(M). In addition, in assay [2], the inhibitory constant (Ki) is 3300 µM. In assay [3], the Ki came out at 182 µM. For the same molecule, in assay [4], the “Fold (Ki + HSA / Ki - HSA)” value is 18.2 fold.
